Reference: publication PMC3709894, “Characterization of the Interaction between the Cohesin Subunits Rad21 and SA1/2” (PLoS ONE, 2013)

Target: T1, 6xHis-tagged SA2 (1–1051 aa), baculovirus-expressed (human, UniProt Q8N3U4 1-1051)
T1 construct: source: Sf21 insect cells, baculovirus, in cell extract; not shown: 6xHis, N-terminal, kept
T1 sequence (looked up): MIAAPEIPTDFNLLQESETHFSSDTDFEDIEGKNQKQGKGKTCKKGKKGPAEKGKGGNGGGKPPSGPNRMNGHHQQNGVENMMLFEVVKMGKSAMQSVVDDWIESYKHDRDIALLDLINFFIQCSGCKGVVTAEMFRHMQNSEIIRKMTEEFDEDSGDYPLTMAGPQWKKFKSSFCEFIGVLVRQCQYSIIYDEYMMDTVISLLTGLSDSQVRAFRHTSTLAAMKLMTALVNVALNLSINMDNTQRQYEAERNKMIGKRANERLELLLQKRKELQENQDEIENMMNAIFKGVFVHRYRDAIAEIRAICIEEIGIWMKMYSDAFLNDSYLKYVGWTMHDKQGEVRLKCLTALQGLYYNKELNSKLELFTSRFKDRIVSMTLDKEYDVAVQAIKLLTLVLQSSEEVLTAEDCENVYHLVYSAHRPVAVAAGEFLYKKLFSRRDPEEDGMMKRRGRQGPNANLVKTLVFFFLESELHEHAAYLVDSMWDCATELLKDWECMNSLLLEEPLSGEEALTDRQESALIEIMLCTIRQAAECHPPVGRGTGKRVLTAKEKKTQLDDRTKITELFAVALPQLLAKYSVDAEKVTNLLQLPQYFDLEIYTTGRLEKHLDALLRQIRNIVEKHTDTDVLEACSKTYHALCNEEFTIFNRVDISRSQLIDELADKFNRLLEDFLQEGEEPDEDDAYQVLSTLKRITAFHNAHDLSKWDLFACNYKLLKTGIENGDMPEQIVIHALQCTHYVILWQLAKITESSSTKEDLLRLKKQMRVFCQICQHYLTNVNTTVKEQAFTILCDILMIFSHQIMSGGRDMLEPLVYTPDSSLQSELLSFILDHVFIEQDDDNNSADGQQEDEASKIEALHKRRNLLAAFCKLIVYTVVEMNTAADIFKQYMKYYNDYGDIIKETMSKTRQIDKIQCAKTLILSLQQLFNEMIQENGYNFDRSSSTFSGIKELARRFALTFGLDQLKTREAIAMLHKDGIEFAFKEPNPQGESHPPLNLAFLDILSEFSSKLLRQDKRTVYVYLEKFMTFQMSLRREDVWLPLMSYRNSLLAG
Assay: SEC; complex co-expressed in Sf21 cells and purified by Ni-NTA and anion exchange, then Superose 6 gel filtration; 25 mM Tris-HCl pH 7.5, 200 mM NaCl, 5% glycerol
Details: both partners purified

B1: Flag-tagged Rad21 (171–450 aa), baculovirus-expressed (domain or fragment, human, UniProt O60216 171-450, looked up)
chain: MREGSAFEDDDMLVSTTTSNLLLESEQSTSNLNEKINHLEYEDQYKDDNFGEGNDGGILDDKLISNNDGGIFDDPPALSEAGVMLPEQPAHDDMDEDDNVSMGGPDSPDSVDPVEPMPTMTDQTTLVPNEEEAFALEPIDITVKETKAKRKRKLIVDSVKELDSKTIRAQLSDYSDIVTTLDLAPPTKKLMMWKETGGVEKLFSLPAQPLWNNRLLKLFTRCLTPLVPEDLRKRRKGGEADNLDEFLKEFENPEVPREDQQQQHQQRDVIDEPIIEEPSR
notes: also called Rad21 middle region; source: Sf21 insect cells, baculovirus, in cell extract
B1: binds.
